The target in test [1] is T1, Rat DLL3 full-length protein on CHO-s cells (rat, UniProt O88671 33-589).
T1 construct: also called RatDLL3/CHO-s; ratDLL3/CHO-s
T1 sequence: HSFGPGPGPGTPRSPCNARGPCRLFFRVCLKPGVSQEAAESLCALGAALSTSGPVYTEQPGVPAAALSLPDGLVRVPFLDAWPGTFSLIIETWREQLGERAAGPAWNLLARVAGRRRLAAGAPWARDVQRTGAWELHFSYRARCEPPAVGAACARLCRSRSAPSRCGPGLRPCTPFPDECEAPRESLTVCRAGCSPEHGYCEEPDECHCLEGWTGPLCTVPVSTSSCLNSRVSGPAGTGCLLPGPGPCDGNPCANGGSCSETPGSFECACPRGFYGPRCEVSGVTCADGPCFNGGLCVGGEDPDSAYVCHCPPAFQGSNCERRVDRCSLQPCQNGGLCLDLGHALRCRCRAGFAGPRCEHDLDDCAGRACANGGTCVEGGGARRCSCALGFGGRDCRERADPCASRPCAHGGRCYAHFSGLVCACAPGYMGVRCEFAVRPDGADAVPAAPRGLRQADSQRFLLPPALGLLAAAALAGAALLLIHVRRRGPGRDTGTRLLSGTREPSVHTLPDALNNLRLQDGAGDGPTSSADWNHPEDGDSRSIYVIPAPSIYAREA
Nature of the test: FACS on RatDLL3/CHO-s cells. As for the experimental part: Cells of the DLL3-expressing small cell lung cancer cell lines H1184 (ATCC, Cat. No. CRL-5858), DLL3/H82, cynoDLL3/CHO-s, and RatDLL3/CHO-s were suspended at 1×10^6/mL in FACS buffer (1% BSA+pH 7.4 PBS), and the cell suspensions were added to a 96-well round-bottom plate (Corning, 3795) at 100 μL/well. The plate was centrifuged at 300 g for 5 min, and the supernatant was removed. Different concentrations of test antibodies were added at 100 μL/well. The plate was incubated in the dark in a refrigerator at 4° C. for 1 h. After 3 washes by centrifugation at 300 g, working concentrations of APC anti-human IgG Fc (BioLegend, 410712) or PE F(ab′)2-goat anti-human IgG (invitrogen, H10104) were added. The plate was incubated in the dark in a refrigerator at 4° C. for 40 min. After 3 washes by centrifugation at 300 g, the geometric mean fluorescence intensity was measured on an Invitrogen flow cytometer, and the EC50 values of the antibodies in binding to DLL3-expressing cells were calculated.

The target in test [2] is T2, Human DLL4 full-length protein on CHO-s cells (human, UniProt Q9NR61 27-685).
T2 construct: also called human DLL4/CHO-s
T2 sequence (Q9NR61 27-685 limits assumed): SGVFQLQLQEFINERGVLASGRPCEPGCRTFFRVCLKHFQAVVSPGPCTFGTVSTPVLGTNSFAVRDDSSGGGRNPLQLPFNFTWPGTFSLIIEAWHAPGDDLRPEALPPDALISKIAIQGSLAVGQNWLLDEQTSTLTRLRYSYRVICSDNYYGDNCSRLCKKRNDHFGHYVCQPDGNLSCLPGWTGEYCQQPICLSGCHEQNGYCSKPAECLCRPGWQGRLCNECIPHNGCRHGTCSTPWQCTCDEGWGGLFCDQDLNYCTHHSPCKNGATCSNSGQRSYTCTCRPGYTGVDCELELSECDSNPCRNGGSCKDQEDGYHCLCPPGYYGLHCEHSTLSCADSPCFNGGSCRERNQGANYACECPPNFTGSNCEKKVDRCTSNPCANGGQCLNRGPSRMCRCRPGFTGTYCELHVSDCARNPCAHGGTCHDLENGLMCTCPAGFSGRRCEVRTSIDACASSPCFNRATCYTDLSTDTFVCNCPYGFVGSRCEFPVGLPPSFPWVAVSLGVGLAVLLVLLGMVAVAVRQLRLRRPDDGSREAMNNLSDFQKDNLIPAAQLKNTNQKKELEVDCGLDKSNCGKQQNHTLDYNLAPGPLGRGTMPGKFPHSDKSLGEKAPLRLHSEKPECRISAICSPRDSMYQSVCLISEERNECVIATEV
The test can be described thus: FACS on human DLL4/CHO-s cells. Here is the method:
(§1) Stably transfected human DLL1/CHO-s and human DLL4/CHO-s cells were suspended at 1×10⁶/mL in FACS buffer (containing 1% BSA and pH 7.4 PBS), and the cell suspensions were added to a 96-well round-bottom plate (Corning, 3795) at 100 µL/well. The plate was centrifuged at 300 g for 5 min, and the supernatant was removed. Test antibodies were added at 100 μL/well, and the plate was incubated in the dark in a refrigerator at 4° C. for 1 h. After 3 washes by centrifugation at 300 g, working concentrations of PE F(ab′)2-goat anti-human IgG Fc secondary antibody (invitrogen, H10104) were added. The plate was incubated in the dark in a refrigerator at 4° C. for 40 min. After 3 washes by centrifugation at 300 g, the geometric mean fluorescence intensity was measured on an Invitrogen flow cytometer.

The target in test [3] is T3, Human DLL1 full-length protein on CHO-s cells (human, UniProt O00548 18-723).
T3 construct: also called human DLL1/CHO-s
T3 sequence: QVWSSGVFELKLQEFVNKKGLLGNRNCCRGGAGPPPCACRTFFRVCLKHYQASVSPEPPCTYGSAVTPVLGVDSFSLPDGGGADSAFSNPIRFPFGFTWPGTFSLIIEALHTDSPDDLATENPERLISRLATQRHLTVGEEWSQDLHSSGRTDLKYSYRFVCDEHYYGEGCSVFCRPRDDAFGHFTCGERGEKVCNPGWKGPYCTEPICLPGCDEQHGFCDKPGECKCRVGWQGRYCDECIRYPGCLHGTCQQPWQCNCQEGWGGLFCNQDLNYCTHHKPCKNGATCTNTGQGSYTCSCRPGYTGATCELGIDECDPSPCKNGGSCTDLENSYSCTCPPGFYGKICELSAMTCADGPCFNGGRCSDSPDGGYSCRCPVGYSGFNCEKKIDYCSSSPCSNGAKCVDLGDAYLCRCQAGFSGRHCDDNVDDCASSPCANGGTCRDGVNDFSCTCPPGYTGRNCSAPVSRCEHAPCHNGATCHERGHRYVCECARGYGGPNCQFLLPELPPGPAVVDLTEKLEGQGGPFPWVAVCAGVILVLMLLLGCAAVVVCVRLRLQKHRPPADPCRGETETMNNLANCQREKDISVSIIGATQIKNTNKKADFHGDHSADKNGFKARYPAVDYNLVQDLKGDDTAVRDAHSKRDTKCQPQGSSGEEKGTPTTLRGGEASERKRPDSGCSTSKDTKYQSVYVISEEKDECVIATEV
The test can be described thus: FACS on human DLL1/CHO-s cells. As for the experimental part: as §1

In test [4] the target is T4, hDLL3(ECD)-strep twin, biotinylated (human, UniProt Q9NYJ7 27-492, biotinylated (site not stated)).
T4 construct: also called Biotinylated DLL3 antigen; Biotinylated DLL3-Strep
The test can be described thus: ELISA, biotinylated antigen on streptavidin plate. As for the experimental part:
Streptavidin (abcam, ab136200, 1 μg/mL) was plated at 100 μL/well, and the plate was incubated overnight at 4° C. The plate was washed 3 times with 250 μL of PBST solution (PBS containing 0.1% Tween 20) per well. The plate was blocked with 250 μL of 5% milk per well at 37° C. for 2 h. The plate was washed 3 times with 250 μL of PBST solution per well. Biotinylated DLL3 antigen (1 μg/mL) (SEQ ID NO: 9) was added, and the plate was incubated at 37° C. for 1 h. The plate was washed 3 times with 250 μL of PBST solution per well. […] The plate was washed 6 times with 250 μL of PBST solution per well. […] The plate was washed 6 times with 250 μL of PBST solution per well. TMB (KPL, 5120-0077) substrate solution was added at 100 μL/well, and color development was allowed at room temperature for 5-10 min. 1 M H₂SO₄ was added at 100 μL/well to stop the color development, and microplate reader (Molecular Devices, VERSA max) readings at 450 nm were taken.

Test [5] deals with cynomolgus monkey DLL3 (KACTUS, DLL-RM103) (cynomolgus monkey). Nature of the test: SPR (Biacore 8K), antibody captured on Protein A chip, 1:1 fit.

B1: Hu100 (antibody, human IgG1, kappa, V domains shown)
VH: EVQLVESGGGLVKPGGSLRLSCAASGFTFSDSGMHWIRQAPGKGLEWVSYISSGSSTIHYADTVKGRFTISRDNAKNSLYLQMNSLRAEDTAVYYCASPLYYYGRSYNAVAYWGQGTTVTVSS
VL: DIQMTQSPSSLSASVGDRVTITCHASQNINVWLSWYQQKPGKVPKLLIYKASDLHTGVPSRFSGSGSGTDFTLTISSLQPEDVATYYCQQGQSYPLTFGGGTKVEIKR
notes: also called hAb100L1H1
Regarding B1, the binding result in test [1], in test [2] and in test [3] was “no binding” throughout. It took 0.05 nM to reach a half-maximal effect in test [4] (EC50). The Kd in test [5] worked out at 1.11 nM.

B2: Hu6 (antibody, human IgG1, kappa, V domains shown)
VH: EVQLVQSGSELKKPGASVKVSCKASGYTFTDYYMNWVRQAPGQGLEWMGIINPYSGVTIYNHKFKGRFALSVDKSSNTAYLQISSLKAEDTAVYYCARQDSLLDYAMDYWGQGTTVTVSS
VL: DIQMTQSPSSLSASVGDRVTITCHASQGISGNMGWLQQKPGKAPKGLIYHGANLEDGVPSRFSGSGSGADYTLTISSLQPEDFADYYCVQYAQFPYTFGGGTKVEIKR
notes: also called hAb6L4H12
Turning to B2, the EC50 came to 1.42 nM in test [1] and 0.04 nM in test [4]. For the same molecule, the binding result in test [2] and in test [3] was “no binding” each time. This molecule also showed a Kd in test [5] of 1.31 nM.

The record behind these values is patent publication US20250057968A1, “ANTI-DLL3 ANTIBODY AND PHARMACEUTICAL USE THEREOF, AND ANTIBODY-DRUG CONJUGATE CONTAINING ANTI-DLL3 ANTIBODY” (Jiangsu Hengrui Pharmaceuticals Co., Ltd., priority 2021, published 2025).
